According to patent publication US20200102398A1 (Amgen, published 2020):

T1: soluble BCMA (sBCMA) (human, UniProt Q02223 1-54)
T1 construct: also called BCMA ECD; Biotinylated BCMA
T1 sequence: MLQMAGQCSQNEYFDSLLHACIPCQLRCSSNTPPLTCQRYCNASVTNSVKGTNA

B1: sBCMA-mAb1 (antibody, V domains shown)
VH: QSLEESGGDLVKPGAFLTLTCTASGFSFSSGYYICWVRQAPGKGLEWIACIYTGSSGSTDYASWAKGRFTISKTSSTTVTLQMTSLTAADTATYFCARDYGHSYWNLWGPGTLVTVSS
VL: DIVMTQTPASVEAAVGGTVTIKCQASEDISSRLAWYQQKPGQPPKLLIGAASTLASGVSSRFKGSRSGTEYTLTISDLECADAATYYCLGDYYVSSYGNAFGGGTEVVVKG
notes: Rabbit monoclonal IgG, used as purified recombinant antibody; also called rabbit monoclonal anti-sBCMA antibody sBCMA-mAb1; sBCMA-mAbl

What was measured:
[1] = target: B1; experiment: Octet: sBCMA-mAb3 on captured sBCMA-mAb1 without BCMA (sensor blocked with irrelevant IgG)
[2] = target: T1, soluble BCMA (sBCMA); experiment: SPR (Biacore 3000, 25 C); mAb captured on goat anti-rabbit IgG Fc, sBCMA as analyte; 1:1 Langmuir with mass transfer
Protocol: Experiments were performed using a Biacore 3000 (GE Healthcare) at 25° C. The running buffer was HBS-P (10 mM HEPES, pH7.4, 150 mM NaCl, 0.05% Surfactant P-20)+0.1% BSA, and kinetics were performed at a high flowrate (100 μl/min). 10 mM Glycine, pH 1.7 was used for regeneration.
Surface preparation: A goat anti-rabbit IgG Fc (Prod. #111-005-046 from Jackson Research) was diluted 1/20 in NaAcetate, pH 5 and covalently coupled to the sample and reference Fc (Fc 1) of a CMS sensor chip using amine coupling. Individual mAbs were diluted in HBS-P+0.1% BSA and captured on either Fc 2, 3, or 4 at 0.3 μg/ml for kinetic analysis of binding to sBCMA.
Interaction Parameters: sBCMA (1.19 mg/ml stock) was injected as analyte at 600 nM, 300 nM, 150 nM, 75 nM, 37.5 nM, 18.8 nM, and 9.4 nM with the 75 nM concentrated run twice to gage reproducibility. The association rate was monitored for 2.5 minutes. The dissociation time was 20 minutes to determine more accurate kinetics for those mAbs with slower off-rates. The data was double background referenced in that both a reference Fc and a 0 nM analyte concentration were subtracted from the data. A 1:1 Langmuir binding model with mass transfer was used from the Biacore evaluation software.

| binding result [1] | Kd [2] [nM] | koff [2] [s⁻¹] | kon [2] [M⁻¹ s⁻¹] | Binder |
| --- | --- | --- | --- | --- |
| no binding (tested: not given) | 4.5 | 0.00405 | 901000 | sBCMA-mAb3 (antibody, V domains shown, Rabbit monoclonal IgG; also called rabbit monoclonal anti-sBCMA-mAb3) VH: QEQLEESGGGLVKPGGTLTLTCKASGMDFSSYYYMCWVRQAPGKGLEWIACIFSDSGGHTAYASWAEGRFTISKTSSTTVTLQMTSLTVADTATYFCARDRRDVVYIRDLWGPGTLVTVSS VL: ALVMTQTPSPVSAAVGGTVTISCQSSESVYNNNALAWYQQKPGQPPKLLIYGASSLASGVPSRFKGSGSGTQFTLTISDLECDDAATYYCAGYKRYNNDGHAFGGGTEVVVKG |
| – | 0.103 | 6.47e-05 | 630000 | B1 |
| – | 377 | 0.0185 | 49200 | sBCMA-mAb2 (antibody, V domains shown, Rabbit monoclonal IgG; also called rabbit monoclonal anti-sBCMA antibody sBCMA-mAb2) VH: QSLEESGGDLVKPGASLTLTCTASGFSFSSSYWICWVRQAPGKGLEWIACIYAGSGDFTYYASWAKGRFTVSKTSSTTVTLQMTSLTAADTATYFCARDAATSYYSHYFTLWGPGTLVTVSS VL: DVVMTQTPASVSEPVGGTVTIKCQASQSIYSGLAWYQQKPGQPPKLLIYDASDLASGVPSRFSGSGYGTEFTLTISGVQCEDAATYYCQVTHYESGVPLGGGTEVVVEG |
